Target: T1, MBP-ORC1 A-A (human, UniProt Q13415 1-861, 235KRL237 to 235ARA237)
T1 sequence: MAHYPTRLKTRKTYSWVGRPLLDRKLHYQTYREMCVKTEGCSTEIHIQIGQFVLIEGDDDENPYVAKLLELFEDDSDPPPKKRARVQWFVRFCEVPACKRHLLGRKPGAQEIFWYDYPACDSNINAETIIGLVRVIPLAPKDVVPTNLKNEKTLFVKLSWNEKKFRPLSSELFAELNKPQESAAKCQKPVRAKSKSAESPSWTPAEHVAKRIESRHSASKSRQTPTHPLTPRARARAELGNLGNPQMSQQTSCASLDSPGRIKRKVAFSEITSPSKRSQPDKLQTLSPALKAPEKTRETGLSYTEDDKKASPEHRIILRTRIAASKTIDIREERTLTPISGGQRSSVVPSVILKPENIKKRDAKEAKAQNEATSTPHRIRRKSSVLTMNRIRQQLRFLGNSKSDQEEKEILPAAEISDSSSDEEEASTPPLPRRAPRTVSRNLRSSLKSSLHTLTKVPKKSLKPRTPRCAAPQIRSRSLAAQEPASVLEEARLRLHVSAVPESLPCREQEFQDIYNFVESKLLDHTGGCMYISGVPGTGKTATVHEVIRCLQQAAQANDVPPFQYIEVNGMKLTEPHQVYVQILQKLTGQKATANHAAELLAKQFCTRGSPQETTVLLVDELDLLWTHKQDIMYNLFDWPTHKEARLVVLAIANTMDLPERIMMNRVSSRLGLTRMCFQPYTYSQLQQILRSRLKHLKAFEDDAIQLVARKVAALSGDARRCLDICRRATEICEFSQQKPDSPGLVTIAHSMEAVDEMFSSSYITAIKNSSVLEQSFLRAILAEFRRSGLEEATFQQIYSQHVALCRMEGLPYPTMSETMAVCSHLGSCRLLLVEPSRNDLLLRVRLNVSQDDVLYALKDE
Assay: pull-down

B1: GST-CDC6 (natural protein)
chain: MPQTRSQAQATISFPKRKLSRALNKAKNSSDAKLEPTNVQTVTCSPRVKALPLSPRKRLGDDNLCNTPHLPPCSPPKQGKKENGPPHSHTLKGRRLVFDNQLTIKSPSKRELAKVHQNKILSSVRKSQEITTNSEQRCPLKKESACVRLFKQEGTCYQQAKLVLNTAVPDRLPAREREMDVIRNFLREHICGKKAGSLYLSGAPGTGKTACLSRILQDLKKELKGFKTIMLNCMSLRTAQAVFPAIAQEICQEEVSRPAGKDMMRKLEKHMTAEKGPMIVLVLDEMDQLDSKGQDVLYTLFEWPWLSNSHLVLIGIANTLDLTDRILPRLQAREKCKPQLLNFPPYTRNQIVTILQDRLNQVSRDQVLDNAAVQFCARKVSAVSGDVRKALDVCRRAIEIVESDVKSQTILKPLSECKSPSEPLIPKRVGLIHISQVISEVDGNRMTLSQEGAQDSFPLQQKILVCSLMLLIRQLKIKEVTLGKLYEAYSKVCRKQQVAAVDQSECLSLSGLLEARGILGLKRNKETRLTKVFFKIEEKEIEHALKDKALIGNILATGLP
B1: binds.

Reference: article doi:10.1101/681668 (bioRxiv, 2019)
